Source: patent publication US6017871A, “Protease-containing cleaning compositions” (The Procter & Gamble Company, priority 1997, dated 2000)
Where a chain is given by its changes, count along the chain named. Names and notes keep the numbering of the source. Numbered stars: 1 amine (or outer) side, 2 acyl side, 3 side chain; on linkers, the order of the positions; unused ones are H or OH. Peptide text beside a SMILES is read from it. * marks the point of attachment. pNA = O=[N+]([O-])c1ccc(N*)cc1; Suc = O=C(CCC(=O)[*:2])[*:1]

T1: Bacillus lentus subtilisin (GG36), wild type, Seq. ID No.10 (Lederbergia lenta, UniProt P29600)
T1 construct: The mature subtilisin protein is coded by the codons beginning at the codon GCG (334-336) corresponding to Ala; made in house; host or cells: Bacillus subtilis
T1 sequence (P29600 1-269): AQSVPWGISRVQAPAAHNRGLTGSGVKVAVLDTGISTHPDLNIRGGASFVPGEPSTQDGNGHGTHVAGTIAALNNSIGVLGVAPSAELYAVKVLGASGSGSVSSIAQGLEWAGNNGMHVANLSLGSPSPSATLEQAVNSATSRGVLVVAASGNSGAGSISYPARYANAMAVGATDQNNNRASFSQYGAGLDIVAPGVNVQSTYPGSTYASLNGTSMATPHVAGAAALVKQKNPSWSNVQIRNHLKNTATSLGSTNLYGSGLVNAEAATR

B1: Bacillus lentus subtilisin (GG36), wild type, Seq. ID No.10 (Lederbergia lenta) (protein)
chain: T1 sequence (P29600 1-269)
notes: The mature subtilisin protein is coded by the codons beginning at the codon GCG (334-336) corresponding to Ala; made in house; host or cells: Bacillus subtilis
B2: Bacillus lentus subtilisin variant N76D/N123S (Protease #6) (Lederbergia lenta; N121S/N74D) (protein)
chain: T1 sequence (P29600 1-269) with N74D, N121S
notes: as for B1
B3: Bacillus lentus subtilisin variant N76D/S103A (Protease #3) (Lederbergia lenta; N74D/S101A) (protein)
chain: T1 sequence (P29600 1-269) with N74D, S101A
notes: as for B1
B4: Bacillus lentus subtilisin variant N76D/S99D/S101R (Protease #7) (Lederbergia lenta; N74D/S97D/S99R) (protein)
chain: T1 sequence (P29600 1-269) with N74D, S97D, S99R
notes: as for B1
B5: Bacillus lentus subtilisin variant N76D/V104I (Protease #4) (Lederbergia lenta; N74D/V102I) (protein)
chain: T1 sequence (P29600 1-269) with N74D, V102I
notes: as for B1
B6: Bacillus lentus subtilisin variant N76D (Lederbergia lenta; N74D) (protein)
chain: T1 sequence (P29600 1-269) with N74D
notes: as for B1
B7: Bacillus lentus subtilisin variant N76D/S99D (Protease #1) (Lederbergia lenta; N74D/S97D) (protein)
chain: T1 sequence (P29600 1-269) with N74D, S97D
notes: as for B1
B8: Bacillus lentus subtilisin variant N76D/S101R (Protease #2) (Lederbergia lenta; N74D/S99R) (protein)
chain: T1 sequence (P29600 1-269) with N74D, S99R
notes: as for B1
B9: Bacillus lentus subtilisin variant N76D/I107V (Protease #5) (Lederbergia lenta; I105V/N74D) (protein)
chain: T1 sequence (P29600 1-269) with N74D, I105V
notes: as for B1
B10: B. amyloliquefaciens subtilisin (BPN') variant BPN'-N76D/Y217L (Bacillus amyloliquefaciens; N183D/Y324L) (protein)
chain: AQSVPYGVSQIKAPALHSQGYTGSNVKVAVIDSGIDSSHPDLKVAGGASMVPSETNPFQDNNSHGTHVAGTVAALDNSIGVLGVAPSASLYAVKVLGADGSGQYSWIINGIEWAIANNMDVINMSLGGPSGSAALKAAVDKAVASGVVVVAAAGNEGTSGSSSTVGYPGKYPSVIAVGAVDSSNQRASFSSVGPELDVMAPGVSIQSTLPGNKYGALNGTSMASPHVAGAAALILSKHPNWTNTQVRSSLENTTTKLGDSFYYGKGLINVQAAAQ
notes: made in house; host or cells: protease-deficient Bacillus subtilis

How the values were obtained:
Assay in all cases: Kinetic parameters for hydrolysis of synthetic peptide substrate
[1] = target: T1, Bacillus lentus subtilisin (GG36), wild type, Seq. ID No.10; type: biochemical; conditions: Table III; 0.1 M Tris-HCL buffer, pH 8.6, 25° C.
Protocol: (§1) The kinetic parameters kcat, KM, and kcat KM are measured for hydrolysis of the synthetic peptide substrate succinyl-L-Ala-L-Ala-L-Pro-L-Phe-p-nitroanilide using the method described in P. Bonneau et al. (1991) J. Am. Chem. Soc., Vol. 113, No. 3, p. 1030. Briefly, a small aliquot of subtilisin variant stock solution is added to a 1 cm cuvette containing substrate dissolved in 0.1 M Tris-HCL buffer, pH 8.6, and thermostated at 25° C. The reaction progress is followed spectrophotometrically by monitoring the absorbance of the reaction product p-nitroaniline at 410 nm. Kinetic parameters are obtained by using a non-linear regression algorithm to fit the reaction velocity and product concentration for each reaction to the Michaelis-Menten equation.
(§2) Numerous variants are made as per the teachings of these Protease Manufacture Examples. Kinetics data and stability data are generated for such variants. The kinetics data are generated using the methods described hereinbefore and are provided in Table V. The stability data are generated as detailed herein.

[2] = target: T2, B. amyloliquefaciens subtilisin (BPN'), wild type, Seq. ID No.7 (Bacillus amyloliquefaciens, UniProt P00782); type: biochemical; conditions: Table V; 0.1 M Tris-HCL buffer, pH 8.6, 25° C.
T2 construct: made in house; host or cells: protease-deficient Bacillus subtilis
Protocol: as §1, §2

[3] = substrate: C[C@H](NC(=O)CCC(=O)O)C(=O)N[C@@H](C)C(=O)N1CCC[C@H]1C(=O)N[C@@H](Cc1ccccc1)C(=O)Nc1ccc([N+](=O)[O-])cc1; type: biochemical, Bacillus lentus; conditions: other: Table III, 0.1 M Tris-HCL buffer, pH 8.6, 25° C.
Protocol: as §1, §2

[4] = substrate: C[C@H](NC(=O)CCC(=O)O)C(=O)N[C@@H](C)C(=O)N1CCC[C@H]1C(=O)N[C@@H](Cc1ccccc1)C(=O)Nc1ccc([N+](=O)[O-])cc1; type: biochemical, Bacillus lentus; conditions: other: Table III, 0.1 M Tris-HCL buffer, pH 8.6, 25° C.; remark: listed apart in the source
Protocol: as §1

[5] = substrate: C[C@H](NC(=O)CCC(=O)O)C(=O)N[C@@H](C)C(=O)N1CCC[C@H]1C(=O)N[C@@H](Cc1ccccc1)C(=O)Nc1ccc([N+](=O)[O-])cc1; type: biochemical, Bacillus amyloliquefaciens; conditions: other: Table V, 0.1 M Tris-HCL buffer, pH 8.6, 25° C.
Protocol: as §1, §2

T2 sequence (P00782 108-382): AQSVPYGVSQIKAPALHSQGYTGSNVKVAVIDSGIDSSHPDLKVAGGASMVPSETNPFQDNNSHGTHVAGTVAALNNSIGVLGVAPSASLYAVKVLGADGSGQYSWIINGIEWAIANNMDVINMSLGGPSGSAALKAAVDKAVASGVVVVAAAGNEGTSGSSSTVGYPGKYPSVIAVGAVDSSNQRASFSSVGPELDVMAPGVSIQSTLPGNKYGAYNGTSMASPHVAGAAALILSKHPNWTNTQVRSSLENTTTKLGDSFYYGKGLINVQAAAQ

Row | Molecule | Km [4] | kcat [4] | kcat/Km [4] | further results
1 | C[C@H](NC(=O)CCC(=O)O)C(=O)N[C@@H](C)C(=O)N1CCC[C@H]1C(=O)N[C@@H](Cc1ccccc1)C(=O)Nc1ccc([N+](=O)[O-])cc1 [succinyl-L-Ala-L-Ala-L-Pro-L-Phe-p-nitroanilide] (Suc-AAPF-pNA) | – | – | – | kcat/KM [1]: 218000 M⁻¹ s⁻¹; kcat [2]: 50 s⁻¹; kcat/KM [2]: 3.60E + 05 s^-1 M^-1
2 | B1 | – | – | – | Km [3]: 780 µM; kcat [3]: 170 s⁻¹; kcat/Km [3]: 2.20E + 05 s^-1 M^-1
3 | B2 | 1800 µM | 115 s⁻¹ | 64000 M⁻¹ s⁻¹ | –
4 | B3 | 1400 µM | 400 s⁻¹ | 286000 M⁻¹ s⁻¹ | –
5 | B4 | 380 µM | 146 s⁻¹ | 384000 M⁻¹ s⁻¹ | –
6 | B5 | 1100 µM | 459 s⁻¹ | 417000 M⁻¹ s⁻¹ | –
7 | B6 | 800 µM | 219 s⁻¹ | 274000 M⁻¹ s⁻¹ | –
8 | B7 | 610 µM | 88 s⁻¹ | 144000 M⁻¹ s⁻¹ | –
9 | B8 | 1300 µM | 371 s⁻¹ | 285000 M⁻¹ s⁻¹ | –
10 | B9 | 1100 µM | 219 s⁻¹ | 199000 M⁻¹ s⁻¹ | –
11 | B10 | – | – | – | Km [5]: 460 µM; kcat [5]: 380 s⁻¹; kcat/Km [5]: 8.30E + 05 s^-1 M^-1
